Measurements from patent publication US20260226110A1.

Target: single antigen M1 peptide segment of monkeypox virus (monkeypox virus isolate MPXV_USA_2022_MA001) (UniProt M1LBP0)
UniProt M1LBP0, sequence (M1LBP0 1-181 limits assumed): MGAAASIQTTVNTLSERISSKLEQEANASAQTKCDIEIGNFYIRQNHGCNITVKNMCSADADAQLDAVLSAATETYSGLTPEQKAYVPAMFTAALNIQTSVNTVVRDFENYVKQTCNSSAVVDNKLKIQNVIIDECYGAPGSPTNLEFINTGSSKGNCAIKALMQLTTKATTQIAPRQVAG

Substance: neutralizing antibody 7D11
- koff: 0.00476 s⁻¹
- kon: 1.44e+06 M⁻¹ s⁻¹
